One assay deals with RsLOV (Cereibacter sphaeroides, UniProt M1E1F8). The assay is described as follows: X-ray crystallography. The class given is binding. The conditions noted are these: dark state, noncovalent; 1.9 Å.
Assay [1] concerns the target A138Y RsLOV variant (Rhodobacter sphaeroides ATCC 17025). The assay is described as follows: SEC. A general note: Size exclusion chromatography separates by hydrodynamic size, large species first.
Assay [2] deals with LOV domain protein of Rhodobacter sphaeroides (RsLOV), wild type (Rhodobacter sphaeroides ATCC 17025). The assay is described as follows: SEC.

In the case of `Cc1cc2nc3c(=O)[nH]c(=O)nc-3n(C[C@H](O)[C@H](O)[C@H](O)COP(=O)(O)O)c2cc1C` [FMN], the X-ray crystallography result on RsLOV is “The Val32 side chain does not extend as far into the FMN pocket as Leu”. In the case of A138Y RsLOV variant (natural protein), in assay [1], the stoichiometry N (usually the number of molecules, sites or subunits per partner or assembly) turned out to be 2. Regarding “LOV domain protein of Rhodobacter sphaeroides (RsLOV), wild type (natural protein)”, in assay [2], the stoichiometry N is 2.

These data come from publication PMC3582384 (Biochemistry, 2013).
